B1: Growth/differentiation factor 5 (Homo sapiens), P43026 (parent)
chain: MRLPKLLTFLLWYLAWLDLEFICTVLGAPDLGQRPQGTRPGLAKAEAKERPPLARNVFRPGGHSYGGGATNANARAKGGTGQTGGLTQPKKDEPKKLPPRPGGPEPKPGHPPQTRQATARTVTPKGQLPGGKAPPKAGSVPSSFLLKKAREPGPPREPKEPFRPPPITPHEYMLSLYRTLSDADRKGGNSSVKLEAGLANTITSFIDKGQDDRGPVVRKQRYVFDISALEKDGLLGAELRILRKKPSDTAKPAAPGGGRAAQLKLSSCPSGRQPAALLDVRSVPGLDGSGWEVFDIWKLFRNFKNSAQLCLELEAWERGRAVDLRGLGFDRAARQVHEKALFLVFGRTKKRDLFFNEIKARSGQDDKTVYEYLFSQRRKRRAPLATRQGKRPSKNLKARCSRKALHVNFKDMGWDDWIIAPLEYEAFHCEGLCEFPLRSHLEPTNHAVIQTLMNSMDPESTPPTCCVPTRLSPISILFIDSANNVVYKQYEDMVVESCGCR

Variants of: B1
Settings: with bmr1b_human BMPR1B

| Variant | effect of a mutation on the interaction |
| --- | --- |
| L441P | decreasing interaction strength |

Variants of: B1
Settings: with bmr1a_human BMPR1A

| Variant | effect of a mutation on the interaction |
| --- | --- |
| R438L | increasing interaction strength |

— IntAct's records for PubMed 16127465
